Measured values published in patent US20120052092A1 (IMPERIAL INNOVATIONS, published 2012).

Target: T1, factor H binding protein (wild type, variant 1) (Neisseria meningitidis, UniProt E6MV22 20-274)
T1 sequence: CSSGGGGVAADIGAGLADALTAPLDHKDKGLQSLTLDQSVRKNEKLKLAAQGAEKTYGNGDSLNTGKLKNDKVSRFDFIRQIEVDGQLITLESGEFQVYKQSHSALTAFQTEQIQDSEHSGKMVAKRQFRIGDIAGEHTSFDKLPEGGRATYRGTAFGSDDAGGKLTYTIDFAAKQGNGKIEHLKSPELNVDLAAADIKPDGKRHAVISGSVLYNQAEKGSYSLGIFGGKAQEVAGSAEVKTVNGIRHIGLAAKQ
Assay: derived from binding studies (SPR)

B1: fH67 (CCPs 6 and 7 of factor H) (other)
chain: TLKPCDYPDIKHGGLYHENMRRPYFPVAVGKYYSYYCDEHFETPSGSYWDHIHCTQDGWSPAVPCLRKCYFPYLENGYNQNYGRKFVQGKSIDVACHPGYALPKAQTTVTCMENGWSPTPRCI
notes: domain: CCPs 6 and 7; also called CCPs 67; Factor H domains 6 & 7
For B1, the “ΔG (calculated from KD)” value was -11 kcal/mol.
